Assay results as given in the MegaScale stability set (Tsuboyama et al. 2023).

B1: EHEE_rd2_0196 (parent)
chain: TETRTFDSEEEAKKAQKEAEKQGRTVTITRRDDRWEVRFD

Variants of: B1
Test: folding stability dG (cDNA display proteolysis); higher = more stable
Details: PBS, room temperature

First: TETRTFDSEEEAKKAQKEAEKQGRTVTITRRDDRWEVRFR [D40R]
Second: TETRTFDSEEEAKKAQKEAEKQGRTVTITRRDDRWEVRFS [D40S]
The “folding stability dG” value of the first is lower: 2.42 kcal/mol for the first, 3.13 kcal/mol for the second.

Compared with TETRTFDSEEEAKKAQKEAEKQGRTVTITRRDDRWEVRFM [D40M], TETRTFDSEEEAKKAQKEAEKQGRTVTITRRDDRWEVRFQ [D40Q] is lower in “folding stability dG” value: 3.01 kcal/mol for the first, 2.92 kcal/mol for the second.

First: TETRTFDSEEEAKKAQKEAEKQGRTVTITRRDDRWEVRFG [D40G]
Second: TETRTFDSEEEAKKAQKEAEKQGRTVTITRRDDRWEVRFA [D40A]
The “folding stability dG” value of the first is lower: 2.95 kcal/mol for the first, 2.97 kcal/mol for the second.

Going from TETRTFDSEEEAKKAQKEAEKQGRTVTITRRDDRWEVRFL [D40L] to TETRTFDSEEEAKKAQKEAEKQGRTVTITRRDDRWEVRFP [D40P], the “folding stability dG” value falls from 3.05 kcal/mol to 2.3 kcal/mol.

Compared with TETRTFDSEEEAKKAQKEAEKQGRTVTITRRDDRWEVRFF [D40F], TETRTFDSEEEAKKAQKEAEKQGRTVTITRRDDRWEVRFK [D40K] is lower in “folding stability dG” value: 2.85 kcal/mol for the first, 2.3 kcal/mol for the second.

First: TETRTFDSEEEAKKAQKEAEKQGRTVTITRRDDRWEVRFN [D40N]
Second: TETRTFDSEEEAKKAQKEAEKQGRTVTITRRDDRWEVRFH [D40H]
The “folding stability dG” value of the first is lower: 2.88 kcal/mol for the first, 2.98 kcal/mol for the second.

Compared with TETRTFDSEEEAKKAQKEAEKQGRTVTITRRDDRWEVRFE [D40E], TETRTFDSEEEAKKAQKEAEKQGRTVTITRRDDRWEVRFI [D40I] is lower in “folding stability dG” value: 3.28 kcal/mol for the first, 3.13 kcal/mol for the second.

Compared with TETRTFDSEEEAKKAQKEAEKQGRTVTITRRDDRWEVFFD [R38F], TETRTFDSEEEAKKAQKEAEKQGRTVTITRRDDRWEVVFD [R38V] is higher in “folding stability dG” value: 2.33 kcal/mol for the first, 3.02 kcal/mol for the second.

Compared with TETRTFDSEEEAKKAQKEAEKQGRTVTITRRDDRWEVIFD [R38I], TETRTFDSEEEAKKAQKEAEKQGRTVTITRRDDRWEVKFD [R38K] is lower in “folding stability dG” value: 3.05 kcal/mol for the first, 2.96 kcal/mol for the second.

First: TETRTFDSEEEAKKAQKEAEKQGRTVTITRRDDRWEVLFD [R38L]
Second: TETRTFDSEEEAKKAQKEAEKQGRTVTITRRDDRWEVGFD [R38G]
The “folding stability dG” value of the first is higher: 2.69 kcal/mol for the first, 2.1 kcal/mol for the second.

First: TETRTFDSEEEAKKAQKEAEKQGRTVTITRRDDRWEVEFD [R38E]
Second: TETRTFDSEEEAKKAQKEAEKQGRTVTITRRDDRWEVSFD [R38S]
The “folding stability dG” value of the first is lower: 2.68 kcal/mol for the first, 3 kcal/mol for the second.

First: TETRTFDSEEEAKKAQKEAEKQGRTVTITRRDDRWEVNFD [R38N]
Second: TETRTFDSEEEAKKAQKEAEKQGRTVTITRRDDRWEVMFD [R38M]
The “folding stability dG” value of the first is lower: 2.73 kcal/mol for the first, 2.74 kcal/mol for the second.

First: TETRTFDSEEEAKKAQKEAEKQGRTVTITRRDDRWEVDFD [R38D]
Second: TETRTFDSEEEAKKAQKEAEKQGRTVTITRRDDRWEVPFD [R38P]
The “folding stability dG” value of the first is higher: 2.18 kcal/mol for the first, 0.679 kcal/mol for the second.

First: TETRTFDSEEEAKKAQKEAEKQGRTVTITRRDDRWEVQFD [R38Q]
Second: TETRTFDSEEEAKKAQKEAEKQGRTVTITRRDDRWEVTFD [R38T]
The “folding stability dG” value of the first is lower: 2.85 kcal/mol for the first, 3.15 kcal/mol for the second.

Compared with TETRTFDSEEEAKKAQKEAEKQGRTVTITRRDDRWEVWFD [R38W], TETRTFDSEEEAKKAQKEAEKQGRTVTITRRDDRWEVYFD [R38Y] is higher in “folding stability dG” value: 2.17 kcal/mol for the first, 2.24 kcal/mol for the second.

Compared with TETRTFDSEEEAKKAQKEAEKQGRTVTITRRDDRWEVAFD [R38A], TETRTFDSEEEAKKAQKEAEKQGRTVTITRRDDRWEVHFD [R38H] is higher in “folding stability dG” value: 2.8 kcal/mol for the first, 3.04 kcal/mol for the second.

Compared with TETRTFDSEEEAKKAQKEAEKQGRTVTITRRDDRWEVRED [F39E], TETRTFDSEEEAKKAQKEAEKQGRTVTITRRDDRWEVRMD [F39M] is higher in “folding stability dG” value: 2.52 kcal/mol for the first, 2.96 kcal/mol for the second.

Going from TETRTFDSEEEAKKAQKEAEKQGRTVTITRRDDRWEVRKD [F39K] to TETRTFDSEEEAKKAQKEAEKQGRTVTITRRDDRWEVRYD [F39Y], the “folding stability dG” value rises from 1.29 kcal/mol to 3.15 kcal/mol.

Going from TETRTFDSEEEAKKAQKEAEKQGRTVTITRRDDRWEVRND [F39N] to TETRTFDSEEEAKKAQKEAEKQGRTVTITRRDDRWEVRID [F39I], the “folding stability dG” value rises from 1.81 kcal/mol to 3.35 kcal/mol.

Going from TETRTFDSEEEAKKAQKEAEKQGRTVTITRRDDRWEVRRD [F39R] to TETRTFDSEEEAKKAQKEAEKQGRTVTITRRDDRWEVRAD [F39A], the “folding stability dG” value rises from 1.35 kcal/mol to 2.34 kcal/mol.

Going from TETRTFDSEEEAKKAQKEAEKQGRTVTITRRDDRWEVRGD [F39G] to TETRTFDSEEEAKKAQKEAEKQGRTVTITRRDDRWEVRTD [F39T], the “folding stability dG” value rises from 1.87 kcal/mol to 2.48 kcal/mol.

Going from TETRTFDSEEEAKKAQKEAEKQGRTVTITRRDDRWEVRQD [F39Q] to TETRTFDSEEEAKKAQKEAEKQGRTVTITRRDDRWEVRWD [F39W], the “folding stability dG” value rises from 2.02 kcal/mol to 2.94 kcal/mol.

First: TETRTFDSEEEAKKAQKEAEKQGRTVTITRRDDRWEVRHD [F39H]
Second: TETRTFDSEEEAKKAQKEAEKQGRTVTITRRDDRWEVRPD [F39P]
The “folding stability dG” value of the first is lower: 1.93 kcal/mol for the first, 2.06 kcal/mol for the second.

Compared with TETRTFDSEEEAKKAQKEAEKQGRTVTITRRDDRWEVRSD [F39S], TETRTFDSEEEAKKAQKEAEKQGRTVTITRRDDRWEVRCD [F39C] is lower in “folding stability dG” value: 2.46 kcal/mol for the first, 2.14 kcal/mol for the second.

Compared with TETRTFDSEEEAKKAQKEAEKQGRTVTITRRDDRWEVRLD [F39L], TETRTFDSEEEAKKAQKEAEKQGRTVTITRRDDRWEVRVD [F39V] is higher in “folding stability dG” value: 2.74 kcal/mol for the first, 2.93 kcal/mol for the second.

Going from TETRTFDSEEEAKKAQKEAEKQGRTVTITRRDDRWEVRDD [F39D] to TETRTFDSEEEAKKAQKEAEKQGRTVTITRRDDRWEPRFD [V37P], the “folding stability dG” value falls from 2.51 kcal/mol to 0.552 kcal/mol.

Going from TETRTFDSEEEAKKAQKEAEKQGRTVTITRRDDRWEYRFD [V37Y] to TETRTFDSEEEAKKAQKEAEKQGRTVTITRRDDRWELRFD [V37L], the “folding stability dG” value rises from 0.443 kcal/mol to 2.83 kcal/mol.

Going from TETRTFDSEEEAKKAQKEAEKQGRTVTITRRDDRWEIRFD [V37I] to TETRTFDSEEEAKKAQKEAEKQGRTVTITRRDDRWEWRFD [V37W], the “folding stability dG” value falls from 2.65 kcal/mol to -0.006 kcal/mol.

Going from TETRTFDSEEEAKKAQKEAEKQGRTVTITRRDDRWEMRFD [V37M] to TETRTFDSEEEAKKAQKEAEKQGRTVTITRRDDRWEKRFD [V37K], the “folding stability dG” value falls from 2.17 kcal/mol to 0.375 kcal/mol.

Going from TETRTFDSEEEAKKAQKEAEKQGRTVTITRRDDRWENRFD [V37N] to TETRTFDSEEEAKKAQKEAEKQGRTVTITRRDDRWETRFD [V37T], the “folding stability dG” value rises from 0.539 kcal/mol to 1.31 kcal/mol.

Going from TETRTFDSEEEAKKAQKEAEKQGRTVTITRRDDRWERRFD [V37R] to TETRTFDSEEEAKKAQKEAEKQGRTVTITRRDDRWESRFD [V37S], the “folding stability dG” value rises from -0.375 kcal/mol to 0.483 kcal/mol.

With TETRTFDSEEEAKKAQKEAEKQGRTVTITRRDDRWEQRFD [V37Q] the “folding stability dG” value was 0.384 kcal/mol.
